Values quoted from earlier work in patent publication US20070225245A1, “Viral vector driven mutant bacterial cytosine deaminase gene and uses thereof” (priority 1998, published 2007).

B1: bCD: wild type bacterial cytosine deaminase (protein, UniProt P25524 2-427, looked up)
Cytosine deaminase: SNNALQTIINARLPGEEGLWQIHLQDGKISAIDAQSGVMPITENSLDAEQGLVIPPFVEPHIHLDTTQTAGQPNWNQSGTLFEGIERWAERKALLTHDDVKQRAWQTLKWQIANGIQHVRTHVDVSDATLTALKAMLEVKQEVAPWIDLQIVAFPQEGILSYPNGEALLEEALRLGADVVGAIPHFEFTREYGVESLHKTFALAQKYDRLIDVHCDEIDDEQSRFVETVAALAHHEGMGARVTASHTTAMHSYNGAYTSRLFRLLKMSGINFVANPLVNIHLQGRFDTYPKRRGITRVKEMLESGINVCFGHDDVFDPWYPLGTANMLQVLHMGLHVCQLMGYGQINDGLNLITHHSARTLNLQDYGIAAGNSANLIILPAENGFDALRRQVPVRYSVRGGKVIASTQPAQTTVYLEQPEAIDYKR
B2: yCD: yeast cytosine deaminase (protein, UniProt Q12178 1-158, looked up)
Cytosine deaminase: MVTGGMASKWDQKGMDIAYEEAALGYKEGGVPIGGCLINNKDGSVLGRGHNMRFQKGSATLHGEISTLENCGRLEGKVYKDTTLYTTLSPCDMCTGAIIMYGIPRCVVGENVNFKSKGEKYLQTRGHEVVVVDDERCKKIMKQFIDERPQDWFEDIGE

Details: cited from earlier work

Molecule	retained activity (at 168 h)	enzyme activity (by 96 h at 37° C.)
B1	100%	
B2		loses all activity
